Experimental findings from US20130108682A1, “WOUND CARE PRODUCT COMPRISING A CATHELICIDIN POLYPEPTIDE” (LIPOPEPTIDE AB, priority 2007, published 2013) are described below.

The nature of the series: Release of LL-37 from coated polyurethane (PU) foam, quantified by ELISA. Format: physicochemical. The following applies: for % LL-37 released in solution: PU foam, data not shown. The method, then:
LL-37 dissolved in PBS or ethanol was absorbed onto PU foam at a concentration of 25 μg LL-37/cm^2. A 1×1 cm piece of each preparation was cut, placed into a glass vial containing 3 ml PBS, and incubated under agitation for 24 h. At various time points (10, 20, 45, 120 min, and 24 h), 100 μl samples were collected and the amount of LL-37 released in solution was evaluated by ELISA. Results are expressed as the % LL-37 released in solution.
LL-37 was dissolved in ethanol or in PBS and 1 ml suspension was dropped onto 2×2 cm pieces of polyurethane (PU) foam (Brightwake, Kirkby-in-Ashfield, United Kingdom). The samples were allowed to dry at room temperature (RT) until no further weight loss could be recorded. Unless otherwise noted, a LL-37 solution at 100 μg/ml was used, resulting in a concentration of 25 μg LL-37/cm^2.
LL-37 was also mixed with various excipients before being applied onto the 2×2 cm PU foams. LL-37 dissolved in PBS was added to dry galactolipid and the resulting dispersion was vigorously shaken for 1 h. The galactolipid concentration was 0.2% (w/w). LL-37 dissolved in water was added to a preformed gel consisting of 25% poloxamer (Lutrol F127) in water. The resulting mixtures of about 1 g were heated at about 60° C. for about 10 min to evaporate the alcohol. The formulations were then applied with a spatula on 2×2 cm pieces of PU. In case the formulation contained water, PU foams were dried at RT for at least 24 h.
To release LL-37 from coated PU foam, 1×1 cm samples were cut and weighed in order to calculate the amount of LL-37 present in each sample. Each PU foam sample was placed into a 15 ml glass vial containing 3 ml PBS and incubated at RT for the indicated time period with constant shaking of 6 rpm. At various time intervals (10, 20, 45, 120 min, and 24 h), 100 μl release sample was removed for analysis and replaced with 100 μl fresh PBS. Release samples were stored at 4° C. until analysis, usually for 24 h.
The release was calculated as the total amount of LL-37 in the release liquid divided by the amount of loaded LL-37 in the sample.
LL-37 was detected and quantified using an enzyme-linked immunosorbent assay (ELISA) based on the protocol developed by Lindgreen and colleagues (Lindgreen 2004). Medium binding capacity 96-well plates (Greiner Bio-one, Frickenhausen Germany) were coated with […] rabbit IgG anti-LL-37 antibodies (Agrisera, Vännäs, Sweden) in 200 μl coating buffer (0.1M bicarbonate buffer, pH 9.0) for 18 to 24 h at 2-8° C. […] Reaction was stopped by addition of 50 μl 1 M sulfuric acid and absorbance immediately read at 450 nm (OD450 nm) using a VERSAmax microplate reader equipped with SoftMax Pro software for analysis (Molecular Devices).

For the sequence “LLGDFFRKSKEKIGKEFKRIVQRIKDFLRNLVPRTES [LL-37]”, the “% LL-37 released in solution (maximum)” value (PU foam with 25 μg LL-37, peptide formulated in PBS or in ethanol, 3 ml PBS, shaking, after 24 h incubation) came out at 30%. The “% LL-37 released in solution” value was “No detectable” (LL-37 formulated in galactolipid (ethanol or PBS solutions)) and 1% (LL-37 formulated in poloxamer (Lutrol)). Besides, the “LL-37 concentration in release sample as determined by ELISA” value (release sample from PU foam where LL-37 in PBS has been absorbed, used in second chemotaxis experiment) is 4,500 ng/ml.
